Data reported in patent US20240279288A1, “APPLICATION OF PLANT JAZ PROTEINS AND DERIVED POLYPEPTIDES IN PREVENTION AND TREATMENT OF HUMAN AND ANIMAL TUMORS” (ANYANG INSTITUTE OF SINO-COTTON INDUSTRY INNOVATION, priority 2021, published 2024).

Columns and labels:
lung cancer cells A549 = experiment: CCK8 cell viability detection, A549; format: cell-based, human; settings: CCK8, 24 h treatment; read-out: IC50, inhibition of A549 cells
Protocol: CCK8 cell viability detection: cell suspension was seeded in 96-well plates at a concentration of 5×10^4 cells/ml (100 μL/well). The plates were placed in the incubator for pre-culture (at 37° C., 5% CO2), and control and protein agents were added to each well 24 h after seeding. The plates were then placed in the incubator for 24 h, followed by addition of 10 μL CCK8 solution into each well and incubation of the plates in the incubator for 0.5-2 h before the absorbance measurement at 450 nm using a microplate reader.
Analysis of effect of GhJAZ1 protein on the cell cycle and apoptosis of tumor cells

GhMYC2 = experiment: Luciferase experiment in tobacco leaves with GhMYC2; format: binding, cotton; settings: no fluorescence on the control
Sequence of GhMYC2 (as listed by the source): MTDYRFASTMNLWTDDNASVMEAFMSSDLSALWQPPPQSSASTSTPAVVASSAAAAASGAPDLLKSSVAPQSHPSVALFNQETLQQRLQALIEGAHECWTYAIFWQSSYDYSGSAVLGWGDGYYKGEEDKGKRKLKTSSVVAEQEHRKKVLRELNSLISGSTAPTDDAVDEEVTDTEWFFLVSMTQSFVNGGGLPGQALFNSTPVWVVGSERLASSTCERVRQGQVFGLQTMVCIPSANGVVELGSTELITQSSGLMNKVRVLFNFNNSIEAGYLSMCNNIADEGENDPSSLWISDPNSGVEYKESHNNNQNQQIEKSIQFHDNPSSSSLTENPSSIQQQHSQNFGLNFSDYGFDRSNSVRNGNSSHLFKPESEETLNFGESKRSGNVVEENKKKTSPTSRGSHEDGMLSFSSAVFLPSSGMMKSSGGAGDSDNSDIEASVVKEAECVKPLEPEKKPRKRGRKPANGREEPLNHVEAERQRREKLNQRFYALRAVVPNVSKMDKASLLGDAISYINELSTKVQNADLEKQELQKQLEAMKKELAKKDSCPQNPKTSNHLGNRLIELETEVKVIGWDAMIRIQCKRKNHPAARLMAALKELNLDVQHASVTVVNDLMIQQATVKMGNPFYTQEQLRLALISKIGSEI
Text: Method of the luciferase experiment: GhJAZ1 (corresponding encoding gene sequence set forth in SEQ ID No. 39) was subcloned into pCAMBIA-CLuc vector (Chen, H., et al. “Firefly Luciferase Complementation Imaging Assay for Protein-Protein Interactions in Plants.” Plant Physiology 146.2(2008):368-376.) between KpnI and SalI cleavage sites, and the transcription factors such as GhMYC2 (corresponding encoding gene sequence set forth in SEQ ID No. 72), GhNINJA (corresponding encoding gene sequence set forth in SEQ ID No. 74), and GhCOI1 (corresponding encoding gene sequence set forth in SEQ ID No. 80) were subcloned into pCAMBIA-NLuc (Chen, H., et al. “Firefly Luciferase Complementation Imaging Assay for Protein-Protein Interactions in Plants.” Plant Physiology 146.2(2008):368-376.) between KpnI and SalI cleavage sites, respectively. […] Luciferase substrates were applied at the infected leaves before taking images and placed in a dark room for at least 6 min to quench fluorescence, followed by observation on the Nightowl-II LB983 instrument, using IndigoBasic software under the luciferase-5 min setting conditions.

B1: GhJAZ1: cotton JAZ1 protein, gene number Gh_A05G0260, sequence SEQ ID No. 4; prokaryotically expressed with His tag, about 30 KD (protein)
chain: MSSCSESTAMKPARSPEKPSFAQTCNLLSQYLKEKGSFGDLSLGMTCNVEANGTPVVPPPTMNLFPLNDKSDDVCGRNGGNPKNLTSMDLFPQQAGLASKDDSPNKLEPQTAPMTIFYGGQVIVFNDFPANKAKEIMLLASNSSSQSNNSFNPIPFTSSIARSPIESSIGVPPTSKPVHPAQRAVPGDLPIARRASLHRFLEKRKDRITAKAPYQINNSAAAPSLSGDNKSWLGLAAQSP
modifications: His tag
notes: prokaryotically expressed with His tag, about 30 KD
Q: What does the source list for B1?
A: IC50 (lung cancer cells A549): 697 nM; fluorescence with GhMYC2 after applying luciferase substrate (GhMYC2): stronger fluorescence
